Results on four molecules are retold here after PMC11247618 (Immunity, 2024).

The chains are these.
B1: hcab17 Fab (Fab, V domains shown)
VH: QVQLNQWGAGLLKPSETLSLTCAVYGDAFSGNYWSWIRQPPGKGLQWIGEINHSGNTNYDPSLESRVSISLDTSKNQLSLKLNSVTAADTALYYCARGQRNCSGGNCYSGLWAWGQGTLVTVSS
VL: AIHMTQSPFSLSASVGDRVTITCRASQGIRNDLAWYQHKPGTAPKVLIYAASSLQDGVSSRFSGSGSGTLFTLTISSLQPEDFATYYCLQGYNYPRTFGQGTKVEMK
B2: hcab64 Fab (Fab, V domains shown)
VH: QVQLVQSGAEIQKPGASVKVSCRASGYTYISTSFHWVRQAPGQGLEWMGVIKTDDGSTSDTQKFQGRLRMTWDTSTSTVYMELSSLRSDDTAVYYCVSPRLGHCRRGRCYETLDWGQGSLVTVSS
VL: EIVLTQSPGTLSLSPGERATLSCRASQSVSSSYLAWYQQKPGQAPRLLVYGASTRATGIPDRFSGSGSGTDFTLTISRLEPEDFAVYYCHQYSSSFWTFGQGTKVEIK
B3: hcab55 Fab (Fab, V domains shown)
VH: QVQLVQSGAEIKKPGASVKVSCKASGYTFISNYFHWVRQAPGQGLEWMGIINPSSGSTTYGQKFQGRVTLTSDTSASIVYLELSRLRSEDTAVYYCVSPRIAHCRGGRCYETLDWGQGTLVTVSS
VL: EIVLTQSPVSLSLSPGERATLSCRASQSVSSNYLAWYQLKPGRAPRLLIYGASSRAPGIPDRFSGSGSGTDFTLTISRLEPEDFAVYYCQQYGISSWTFGQGTKVEIK
B4: hcab40 Fab (Fab, V domains shown)
VH: QVQLQQWGAGLLKPSESLSLTCVVYGGSFSGYYWSWIRQPPGKGLEWIGEINPTGSTNYNPSLNSRVTISVDRSKNHLSLKLSSVTAADTAVYFCARFLPPDYDLLTDYFDPPGAFDIWGQGTMVTVSS
VL: DIHMTQSPFSLSASVGDRVTITCRASQSISGWLAWYQQKVGNAPKLLIYKASSLESGVPSRFSGSGSGTEFTLSISSLQPDDFATYYCQQYNSYPFTFGPGTKVDMK

The target of this assay is 1b09 HCV E2 ectodomain (E2ecto) (Hepatitis C virus genotype 1b, strain …, strain). The experiment in a line: crystal structure.
Take B1: the binding result is on record as “binds”.

With B2, the binding result is reported as “binds”.

On to B3, for which the binding result is recorded as “binds”.

Take B4: the binding result is listed as “binds”.
